Laboratory results published in patent US20190015484A1, “NICOTINE-DEGRADING ENZYMES FOR TREATING NICOTINE ADDICTION AND NICOTINE POISONING” (priority 2015, published 2019).

Assay: NicA2 degradation of nicotine in mouse serum
Type: biochemical
Conditions: 125, 250, 500 nM nicotine, 20 nM NicA2, mouse serum, 30 min
Protocol: FIGS. 5A-5D illustrate the stability of the NicA2 enzyme. FIG. 5A graphically illustrates the thermal stability of the NicA2 enzyme as a function of temperature. FIG. 5B illustrates the stability of NicA2 at 37° C. in HEPES buffer (pH=7.4) as a function of time. […] FIG. 5C illustrates the stability of NicA2 in mouse serum at 37° C. over time. FIG. 5D graphically illustrates the ability of NicA2 to degrade nicotine in mouse serum. Concentrations of 125, 250, 500 nM nicotine with and without enzyme (20 nM NicA2) were incubated in serum for 30 min. Residual nicotine remaining after this time period was measured.
As a means to test NicA2's efficiency “in vivo”, nicotine was doped with or without enzyme in serum (FIG. 5D). […] To further substantiate a conclusion that NicA2 can remove nicotine in vivo, NicA2's catabolism of nicotine was simulated based upon foregoing kinetic constants that were determined. NicA2 specificity constant is approximately 10^5 M^−1s^−1 and while clearly far from a perfect enzyme (10^8-10^9 M^−1s^−1).

B1: NicA2: flavin-containing nicotine-degrading enzyme of Pseudomonas putida S16, amino acid sequence SEQ ID NO:1 (protein)
chain: MSDKTKTNEGFSRRSFIGSAAVVTAGVAGLGAIDAASATQKTNRASTVKGGFDYDVVVVGGGFAGATAARECGLQGYRTLLLEARSRLGGRTFTSRFAGQEIEFGGAWVHWLQPHVWAEMQRYGLGVVEDPLTNLDKTLIMYNDGSVESISPDEFGKNIRIAFEKLCHDAWEVFPRPHEPMFTERARELDKSSVLDRIKTLGLSRLQQAQINSYMALYAGETTDKFGLPGVLKLFACGGWNYDAFMDTETHYRIQGGTIGLINAMLTDSGAEVRMSVPVTAVEQVNGGVKIKTDDDEIITAGVVVMTVPLNTYKHIGFTPALSKGKQRFIKEGQLSKGAKLYVHVKQNLGRVFAFADEQQPLNWVQTHDYSDELGTILSITIARKETIDVNDRDAVTREVQKMFPGVEVLGTAAYDWTADPFSLGAWAAYGVGQLSRLKDLQAAEGRILFAGAETSNGWHANIDGAVESGLRAGREVKQLLS
modifications: His tag
- nicotine consumed in serum: consumed all nicotine
